Patent US11833164B2, “Methods of treating Fabry disease in patients having a mutation in the GLA gene” (Amicus Therapeutics, Inc., priority 2019, dated 2023)

B1: D315N (protein)
chain: MQLRNPELHLGCALALRFLALVSWDIPGARALDNGLARTPTMGWLHWERFMCNLDCQEEPDSCISEKLFMEMAELMVSEGWKDAGYEYLCIDDCWMAPQRDSEGRLQADPQRFPHGIRQLANYVHSKGLKLGIYADVGNKTCAGFPGSFGYYDIDAQTFADWGVDLLKFDGCYCDSLENLADGYKHMSLALNRTGRSIVYSCEWPLYMWPFQKPNYTEIRQYCNHWRNFADIDDSWKSIKSILDWTSFNQERIVDVAGPGGWNDPDMLVIGNFGLSWNQQVTQMALWAIMAAPLFMSNDLRHISPQAKALLQDKNVIAINQDPLGKQGYQLRQGDNFEVWERPLSGLAWAVAMINRQEIGGPRSYTIAVASLGKGVACNPACFITQLLPVKRKLGFYEWTSRLRSHINPTGTVLLQLENTMQMSLKDLL
B2: I317V (protein)
chain: MQLRNPELHLGCALALRFLALVSWDIPGARALDNGLARTPTMGWLHWERFMCNLDCQEEPDSCISEKLFMEMAELMVSEGWKDAGYEYLCIDDCWMAPQRDSEGRLQADPQRFPHGIRQLANYVHSKGLKLGIYADVGNKTCAGFPGSFGYYDIDAQTFADWGVDLLKFDGCYCDSLENLADGYKHMSLALNRTGRSIVYSCEWPLYMWPFQKPNYTEIRQYCNHWRNFADIDDSWKSIKSILDWTSFNQERIVDVAGPGGWNDPDMLVIGNFGLSWNQQVTQMALWAIMAAPLFMSNDLRHISPQAKALLQDKDVVAINQDPLGKQGYQLRQGDNFEVWERPLSGLAWAVAMINRQEIGGPRSYTIAVASLGKGVACNPACFITQLLPVKRKLGFYEWTSRLRSHINPTGTVLLQLENTMQMSLKDLL
B3: D315V (protein)
chain: MQLRNPELHLGCALALRFLALVSWDIPGARALDNGLARTPTMGWLHWERFMCNLDCQEEPDSCISEKLFMEMAELMVSEGWKDAGYEYLCIDDCWMAPQRDSEGRLQADPQRFPHGIRQLANYVHSKGLKLGIYADVGNKTCAGFPGSFGYYDIDAQTFADWGVDLLKFDGCYCDSLENLADGYKHMSLALNRTGRSIVYSCEWPLYMWPFQKPNYTEIRQYCNHWRNFADIDDSWKSIKSILDWTSFNQERIVDVAGPGGWNDPDMLVIGNFGLSWNQQVTQMALWAIMAAPLFMSNDLRHISPQAKALLQDKVVIAINQDPLGKQGYQLRQGDNFEVWERPLSGLAWAVAMINRQEIGGPRSYTIAVASLGKGVACNPACFITQLLPVKRKLGFYEWTSRLRSHINPTGTVLLQLENTMQMSLKDLL
B4: I317M (protein)
chain: MQLRNPELHLGCALALRFLALVSWDIPGARALDNGLARTPTMGWLHWERFMCNLDCQEEPDSCISEKLFMEMAELMVSEGWKDAGYEYLCIDDCWMAPQRDSEGRLQADPQRFPHGIRQLANYVHSKGLKLGIYADVGNKTCAGFPGSFGYYDIDAQTFADWGVDLLKFDGCYCDSLENLADGYKHMSLALNRTGRSIVYSCEWPLYMWPFQKPNYTEIRQYCNHWRNFADIDDSWKSIKSILDWTSFNQERIVDVAGPGGWNDPDMLVIGNFGLSWNQQVTQMALWAIMAAPLFMSNDLRHISPQAKALLQDKDVMAINQDPLGKQGYQLRQGDNFEVWERPLSGLAWAVAMINRQEIGGPRSYTIAVASLGKGVACNPACFITQLLPVKRKLGFYEWTSRLRSHINPTGTVLLQLENTMQMSLKDLL
B5: V316L (protein)
chain: MQLRNPELHLGCALALRFLALVSWDIPGARALDNGLARTPTMGWLHWERFMCNLDCQEEPDSCISEKLFMEMAELMVSEGWKDAGYEYLCIDDCWMAPQRDSEGRLQADPQRFPHGIRQLANYVHSKGLKLGIYADVGNKTCAGFPGSFGYYDIDAQTFADWGVDLLKFDGCYCDSLENLADGYKHMSLALNRTGRSIVYSCEWPLYMWPFQKPNYTEIRQYCNHWRNFADIDDSWKSIKSILDWTSFNQERIVDVAGPGGWNDPDMLVIGNFGLSWNQQVTQMALWAIMAAPLFMSNDLRHISPQAKALLQDKDLIAINQDPLGKQGYQLRQGDNFEVWERPLSGLAWAVAMINRQEIGGPRSYTIAVASLGKGVACNPACFITQLLPVKRKLGFYEWTSRLRSHINPTGTVLLQLENTMQMSLKDLL
B6: V316A (protein)
chain: MQLRNPELHLGCALALRFLALVSWDIPGARALDNGLARTPTMGWLHWERFMCNLDCQEEPDSCISEKLFMEMAELMVSEGWKDAGYEYLCIDDCWMAPQRDSEGRLQADPQRFPHGIRQLANYVHSKGLKLGIYADVGNKTCAGFPGSFGYYDIDAQTFADWGVDLLKFDGCYCDSLENLADGYKHMSLALNRTGRSIVYSCEWPLYMWPFQKPNYTEIRQYCNHWRNFADIDDSWKSIKSILDWTSFNQERIVDVAGPGGWNDPDMLVIGNFGLSWNQQVTQMALWAIMAAPLFMSNDLRHISPQAKALLQDKDAIAINQDPLGKQGYQLRQGDNFEVWERPLSGLAWAVAMINRQEIGGPRSYTIAVASLGKGVACNPACFITQLLPVKRKLGFYEWTSRLRSHINPTGTVLLQLENTMQMSLKDLL
B7: D315Y (protein)
chain: MQLRNPELHLGCALALRFLALVSWDIPGARALDNGLARTPTMGWLHWERFMCNLDCQEEPDSCISEKLFMEMAELMVSEGWKDAGYEYLCIDDCWMAPQRDSEGRLQADPQRFPHGIRQLANYVHSKGLKLGIYADVGNKTCAGFPGSFGYYDIDAQTFADWGVDLLKFDGCYCDSLENLADGYKHMSLALNRTGRSIVYSCEWPLYMWPFQKPNYTEIRQYCNHWRNFADIDDSWKSIKSILDWTSFNQERIVDVAGPGGWNDPDMLVIGNFGLSWNQQVTQMALWAIMAAPLFMSNDLRHISPQAKALLQDKYVIAINQDPLGKQGYQLRQGDNFEVWERPLSGLAWAVAMINRQEIGGPRSYTIAVASLGKGVACNPACFITQLLPVKRKLGFYEWTSRLRSHINPTGTVLLQLENTMQMSLKDLL
B8: A318D (protein)
chain: MQLRNPELHLGCALALRFLALVSWDIPGARALDNGLARTPTMGWLHWERFMCNLDCQEEPDSCISEKLFMEMAELMVSEGWKDAGYEYLCIDDCWMAPQRDSEGRLQADPQRFPHGIRQLANYVHSKGLKLGIYADVGNKTCAGFPGSFGYYDIDAQTFADWGVDLLKFDGCYCDSLENLADGYKHMSLALNRTGRSIVYSCEWPLYMWPFQKPNYTEIRQYCNHWRNFADIDDSWKSIKSILDWTSFNQERIVDVAGPGGWNDPDMLVIGNFGLSWNQQVTQMALWAIMAAPLFMSNDLRHISPQAKALLQDKDVIDINQDPLGKQGYQLRQGDNFEVWERPLSGLAWAVAMINRQEIGGPRSYTIAVASLGKGVACNPACFITQLLPVKRKLGFYEWTSRLRSHINPTGTVLLQLENTMQMSLKDLL
B9: I317L (protein)
chain: MQLRNPELHLGCALALRFLALVSWDIPGARALDNGLARTPTMGWLHWERFMCNLDCQEEPDSCISEKLFMEMAELMVSEGWKDAGYEYLCIDDCWMAPQRDSEGRLQADPQRFPHGIRQLANYVHSKGLKLGIYADVGNKTCAGFPGSFGYYDIDAQTFADWGVDLLKFDGCYCDSLENLADGYKHMSLALNRTGRSIVYSCEWPLYMWPFQKPNYTEIRQYCNHWRNFADIDDSWKSIKSILDWTSFNQERIVDVAGPGGWNDPDMLVIGNFGLSWNQQVTQMALWAIMAAPLFMSNDLRHISPQAKALLQDKDVLAINQDPLGKQGYQLRQGDNFEVWERPLSGLAWAVAMINRQEIGGPRSYTIAVASLGKGVACNPACFITQLLPVKRKLGFYEWTSRLRSHINPTGTVLLQLENTMQMSLKDLL

System: mutant form of α-Gal A expressed in HEK-293 cells
Assay: HEK assay (GLP HEK / Migalastat Amenability Assay): α-Gal A activity in lysates of transiently transfected HEK-293 cells incubated with or without 10 μM migalastat
Format: cell-based, human
Details: for Absolute increase (% WT) / Relative increase: 10 μM migalastat versus baseline; for Baseline α-Gal A activity (% WT): absence of migalastat; for Baseline α-Gal A activity (% WT) / 10 μM migalastat α-Gal A activity (% WT): percentage of baseline wild-type α-Gal A activity; for Baseline α-Gal A activity (% WT) / Baseline α-Gal A activity / 10 μM migalastat α-Gal A activity / 10 μM migalastat α-Gal A activity (% WT): mean ± SEM; for Baseline α-Gal A activity / 10 μM migalastat α-Gal A activity: lysates of HEK-293 cells transiently transfected with the mutant form; for Baseline α-Gal A activity: incubated 5 days in absence of migalastat; for 10 μM migalastat α-Gal A activity: incubated 5 days with 10 μM migalastat; for 10 μM migalastat α-Gal A activity (% WT): with 10 μM migalastat, 5 days
Summary of the method: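 HEK-293 cells transiently transfected with mutant α-Gal A and incubated with or without 10 μM migalastat; lysate activity given as nmol free 4-MU released per mg protein per hour. Values are mean±SEM.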

Molecule	Absolute increase (% WT)	Relative increase	Baseline α-Gal A activity (% WT)	Baseline α-Gal A activity [nmol/mg/h]	10 μM migalastat α-Gal A activity [nmol/mg/h]	10 μM migalastat α-Gal A activity (% WT)
B1	17.9	1.5	34.1 ± 1.7	8553 ± 425	13037 ± 869	52.1 ± 3.7
B2	18.6	1.3	55 ± 6.1	14885 ± 1495	19927 ± 1565	73.6 ± 5.5
B3	24.8	1.8	31.2 ± 3.6	8191 ± 717	14580 ± 1235	56 ± 6
B4	10.2	11.7	1 ± 0.1	340 ± 29	3988 ± 177	11.2 ± 0.8
B5	33.9	1.7	47.4 ± 3.9	12854 ± 958	21812 ± 1450	81.3 ± 6.3
B6	22.7	1.4	48.8 ± 4.1	13166 ± 1029	18908 ± 1577	71.5 ± 7.1
B7	14.2	1.4	34.5 ± 3.5	9198 ± 1179	12674 ± 1008	48.7 ± 2.4
B8	16.9	1.4	42.5 ± 3.6	15357 ± 1499	20838 ± 1817	59.4 ± 5.3
B9	16.5	1.3	54.4 ± 4.9	14780 ± 1222	18770 ± 1141	70.9 ± 5.6
